Measured values published in the supplement of paper PMC5998384.

Assays:
HeLa Kyoto [1] = assay: solubility in G1/S (NP-40 vs SDS abundance) (log2 ratio); higher = more soluble; conditions: cell cycle stage: G1/S
HeLa Kyoto [2] = assay: solubility change mitosis vs G1/S (difference of NP-40 vs SDS log2 ratios) (log2 ratio difference); higher = more soluble in mitosis
HeLa Kyoto [3] = assay: thermal stability score vs G1/S (z-score of summed log2 fold changes over temperatures); higher = more thermally stable than in G1/S
[4] = cell cycle stage: early G1 (4.5 h after nocodazole release)
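Throughout, for solubility change mitosis vs G1/S (difference of NP-40 vs SDS log2 ratios): synchronized HeLa Kyoto cells (double thymidine block for G1/S, nocodazole release for mitosis), protein amounts in NP-40 versus SDS lysates quantified by mass spectrometry, three biological replicates.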
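Throughout, for solubility in G1/S (NP-40 vs SDS abundance): HeLa Kyoto cells arrested at G1/S by double thymidine block, proteins quantified by TMT10plex mass spectrometry in mild NP-40 versus SDS extracts, three biological replicates.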
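Throughout, for thermal stability score vs G1/S (z-score of summed log2 fold changes over temperatures): synchronized HeLa Kyoto cells, proteins quantified by TMT10plex mass spectrometry, three biological replicates, mitosis taken 0.5 h after nocodazole release, G1/S directly after double thymidine block.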

NOS1AP, sequence (chain, as listed by the source): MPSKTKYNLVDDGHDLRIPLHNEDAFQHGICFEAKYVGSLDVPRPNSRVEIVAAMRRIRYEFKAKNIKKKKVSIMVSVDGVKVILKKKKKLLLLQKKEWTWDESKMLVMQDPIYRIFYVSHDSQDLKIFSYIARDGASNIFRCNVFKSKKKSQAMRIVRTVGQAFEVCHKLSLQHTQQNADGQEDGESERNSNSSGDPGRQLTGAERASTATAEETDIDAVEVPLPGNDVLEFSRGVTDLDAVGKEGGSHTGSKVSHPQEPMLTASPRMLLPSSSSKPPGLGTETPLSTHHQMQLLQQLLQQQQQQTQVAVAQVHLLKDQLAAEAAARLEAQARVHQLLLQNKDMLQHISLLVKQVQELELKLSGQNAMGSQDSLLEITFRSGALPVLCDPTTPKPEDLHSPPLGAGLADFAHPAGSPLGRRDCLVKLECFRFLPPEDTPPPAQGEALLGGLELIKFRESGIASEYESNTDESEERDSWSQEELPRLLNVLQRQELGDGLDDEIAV

Substance	solubility in G1/S (log2) (HeLa Kyoto [1])	solubility change mitosis (log2) (HeLa Kyoto [2])	thermal stability score (HeLa Kyoto [3]; [4])	thermal stability score (HeLa Kyoto [3]; cell cycle stage: mitosis)
MPDIIWVFPPQAEAEEDCHSDTVRADDDEENESPAETDLQAQLQMFRAQWMFELAPGVSSSNLENRPCRAARGSLQKTSADTKGKQEQAKEEKARELFLKAVEEEQNGALYEAIKFYRRAMQLVPDIEFKITYTRSPDGDGVGNSYIEDNDDDSKMADLLSYFQQQLTFQESVLKLCQPELESSQIHISVLPMEVLMYIFRWVVSSDLDLRSLEQLSLVCRGFYICARDPEIWRLACLKVWGRSCIKLVPYTSWREMFLERPRVRFDGVYISKTTYIRQGEQSLDGFYRAWHQVEYYRYIRFFPDGHVMMLTTPEEPQSIVPRLRTRNTRTDAILLGHYRLSQDTDNQTKVFAVITKKKEEKPLDYKYRYFRRVPVQEADQSFHVGLQLCSSGHQRFNKLIWIHHSCHITYKSTGETAVSAFEIDKMYTPLFFARVRSYTAFSERPL [FBXO9]	-0.365	0.156	0.568	0.333
MPFLHGFRRIIFEYQPLVDAILGSLGIQDPERQESLDRPSYVASEESRILVLTELLERKAHSPFYQEGVSNALLKMAELGLTRAADVLLRHGANLNFEDPVTYYTALHIAVLRNQPDMVELLVHHGADVNRRDRIHESSPLDLASEEPERLPCLQRLLDLGADVNAADKHGKTALLHALASSDGVQIHNTENIRLLLEGGADVKATTKDGDTVFTCIIFLLGETVGGDKEEAQMINRFCFQVTRLLLAHGADPSECPAHESLTHICLKSFKLHFPLLRFLLESGAAYNCSLHGASCWSGFHIIFERLCSHPGCTEDESHADLLRKAETVLDLMVTNSQKLQLPENFDIHPVGSLAEKIQALHFSLRQLESYPPPLKHLCRVAIRLYLQPWPVDVKVKALPLPDRLKWYLLSEHSGSVEDDI [ASB6]	0.206	0.0228	0.0535	0.637
MPGRSSSNSGSTGFISFSGVESALSSLKNFQACINSGMDTASSVALDLVESQTEVSSEYSMDKAMVEFATLDRQLNHYVKAVQSTINHVKEERPEKIPDLKLLVEKKFLALQSKNSDADFQNNEKFVQFKQQLKELKKQCGLQADREADGTEGVDEDIIVTQSQTNFTCPITKEEMKKPVKNKVCGHTYEEDAIVRMIESRQKRKKKAYCPQIGCSHTDIRKSDLIQDEALRRAIENHNKKRHRHSE [NSMCE2]	-0.0327	0.0514	-0.691	-0.266
MRPPACWWLLAPPALLALLTCSLAFGLASEDTKKEVKQSQDLEKSGISRKNDIDLKGIVFVIQSQSNSFHAKRAEQLKKSILKQAADLTQELPSVLLLHQLAKQEGAWTILPLLPHFSVTYSRNSSWIFFCEEETRIQIPKLLETLRRYDPSKEWFLGKALHDEEATIIHHYAFSENPTVFKYPDFAAGWALSIPLVNKLTKRLKSESLKSDFTIDLKHEIALYIWDKGGGPPLTPVPEFCTNDVDFYCATTFHSFLPLCRKPVKKKDIFVAVKTCKKFHGDRIPIVKQTWESQASLIEYYSDYTENSIPTVDLGIPNTDRGHCGKTFAILERFLNRSQDKTAWLVIVDDDTLISISRLQHLLSCYDSGEPVFLGERYGYGLGTGGYSYITGGGGMVFSREAVRRLLASKCRCYSNDAPDDMVLGMCFSGLGIPVTHSPLFHQARPVDYPKDYLSHQVPISFHKHWNIDPVKVYFTWLAPSDEDKARQETQKGFREEL [B3GLCT]	0.0765	-0.0692	1.99	2.59
MSAKDERAREILRGFKLNWMNLRDAETGKILWQGTEDLSVPGVEHEARVPKKILKCKAVSRELNFSSTEQMEKFRLEQKVYFKGQCLEEWFFEFGFVIPNSTNTWQSLIEAAPESQMMPASVLTGNVIIETKFFDDDLLVSTSRVRLFYV [PDE6D]	0.207	-0.258	0.113	-0.864
MSGDTCLCPASGAKPKLSGFKGGGLGNKYVQLNVGGSLYYTTVRALTRHDTMLKAMFSGRMEVLTDKEGWILIDRCGKHFGTILNYLRDDTITLPQNRQEIKELMAEAKYYLIQGLVNMCQSALQDKKDSYQPVCNIPIITSLKEEERLIESSTKPVVKLLYNRSNNKYSYTSNSDDHLLKNIELFDKLSLRFNGRVLFIKDVIGDEICCWSFYGQGRKLAEVCCTSIVYATEKKQTKVEFPEARIYEETLNVLLYETPRVPDNSLLEATSRSRSQASPSEDEETFELRDRVRRIHVKRYSTYDDRQLGHQSTHRD [TNFAIP1]	-1.22	0.627	1.18e-17	-0.17
MSQVMSSPLLAGGHAVSLAPCDEPRRTLHPAPSPSLPPQCSYYTTEGWGAQALMAPVPCMGPPGRLQQAPQVEAKATCFLPSPGEKALGTPEDLDSYIDFSLESLNQMILELDPTFQLLPPGTGGSQAELAQSTMSMRKKEESEALDIKYIEVTSARSRCHDGPQHCSSPSVTPPFGSLRSGGLLLSRDVPRETRSSSESLIFSGNQGRGHQRPLPPSEGLSPRPPNSPSISIPCMGSKASSPHGLGSPLVASPRLEKRLGGLAPQRGSRISVLSASPVSDVSYMFGSSQSLLHSSNSSHQSSSRSLESPANSSSSLHSLGSVSLCTRPSDFQAPRNPTLTMGQPRTPHSPPLAKEHASSCPPSITNSMVDIPIVLINGCPEPGSSPPQRTPGHQNSVQPGAASPSNPCPATRSNSQTLSDAPFTTCPEGPARDMQPTMKFVMDTSKYWFKPNITREQAIELLRKEEPGAFVIRDSSSYRGSFGLALKVQEVPASAQSRPGEDSNDLIRHFLIESSAKGVHLKGADEEPYFGSLSAFVCQHSIMALALPCKLTIPQRELGGADGASDSTDSPASCQKKSAGCHTLYLSSVSVETLTGALAVQKAISTTFERDILPTPTVVHFKVTEQGITLTDVQRKVFFRRHYPLTTLRFCGMDPEQRKWQKYCKPSWIFGFVAKSQTEPQENVCHLFAEYDMVQPASQVIGLVTALLQDAERM [TNS4]	0.00637	-0.0286	-0.0391	2.56
MSSCVSSQPSSNRAAPQDELGGRGSSSSESQKPCEALRGLSSLSIHLGMESFIVVTECEPGCAVDLGLARDRPLEADGQEVPLDTSGSQARPHLSGRKLSLQERSQGGLAAGGSLDMNGRCICPSLPYSPVSSPQSSPRLPRRPTVESHHVSITGMQDCVQLNQYTLKDEIGKGSYGVVKLAYNENDNTYYAMKVLSKKKLIRQAGFPRRPPPRGTRPAPGGCIQPRGPIEQVYQEIAILKKLDHPNVVKLVEVLDDPNEDHLYMVFELVNQGPVMEVPTLKPLSEDQARFYFQDLIKGIEYLHYQKIIHRDIKPSNLLVGEDGHIKIADFGVSNEFKGSDALLSNTVGTPAFMAPESLSETRKIFSGKALDVWAMGVTLYCFVFGQCPFMDERIMCLHSKIKSQALEFPDQPDIAEDLKDLITRMLDKNPESRIVVPEIKLHPWVTRHGAEPLPSEDENCTLVEVTEEEVENSVKHIPSLATVILVKTMIRKRSFGNPFEGSRREERSLSAPGNLLTKKPTRECESLSELKEARQRRQPPGHRPAPRGGGGSALVRGSPCVESCWAPAPGSPARMHPLRPEEAMEPE [CAMKK2]	0.289	-0.0691	-0.348	-0.0506
MSSECDGGSKAVMNGLAPGSNGQDKATADPLRARSISAVKIIPVKTVKNASGLVLPTDMDLTKICTGKGAVTLRASSSYRETPSSSPASPQETRQHESKPGLEPEPSSADEWRLSSSADANGNAQPSSLAAKGYRSVHPNLPSDKSQDATSSSAAQPEVIVVPLYLVNTDRGQEGTARPPTPLGPLGCVPTIPATASAASPLTFPTLDDFIPPHLQRWPHHSQPARASGSFAPISQTPPSFSPPPPLVPPAPEDLRRVSEPDLTGAVSSTDSSPLLNEVSSSLIGTDSQAFPSVSKPSSAYPSTTIVNPTIVLLQHNREQQKRLSSLSDPVSERRVGEQDSAPTQEKPTSPGKAIEKRAKDDSRRVVKSTQDLSDVSMDEVGIPLRNTERSKDWYKTMFKQIHKLNRDTPEENPYFPTYKFPELPEIQQTSEEDNPYTPTYQFPASTPSPKSEDDDSDLYSPRYSFSEDTKSPLSVPRSKSEMSYIDGEKVVKRSATLPLPARSSSLKSSSERNDWEPPDKKVDTRKYRAEPKSIYEYQPGKSSVLTNEKMSRDISPEEIDLKNEPWYKFFSELEFGKPPPKKIWDYTPGDCSILPREDRKTNLDKDLSLCQTELEADLEKMETLNKAPSANVPQSSAISPTPEISSETPGYIYSSNFHAVKRESDGAPGDLTSLENERQIYKSVLEGGDIPLQGLSGLKRPSSSASTKDSESPRHFIPADYLESTEEFIRRRHDDKEKLLADQRRLKREQEEADIAARRHTGVIPTHHQFITNERFGDLLNIDDTAKRKSGSEMRPARAKFDFKAQTLKELPLQKGDIVYIYKQIDQNWYEGEHHGRVGIFPRTYIELLPPAEKAQPKKLTPVQVLEYGEAIAKFNFNGDTQVEMSFRKGERITLLRQVDENWYEGRIPGTSRQGIFPITYVDVIKRPLVKNPVDYMDLPFSSSPSRSATASPQFSSHSKLITPAPSSLPHSRRALSPEMHAVTSEWISLTVGVPGRRSLALTPPLPPLPEASIYNTDHLALSPRASPSLSLSLPHLSWSDRPTPRSVASPLALPSPHKTYSLAPTSQASLHMNGDGGVHTPSSGIHQDSFLQLPLGSSDSVISQLSDAFSSQSKRQPWREESGQYERKAERGAGERGPGGPKISKKSCLKPSDVVRCLSTEQRLSDLNTPEESRPGKPLGSAFPGSEAEQTERHRGGEQAGRKAARRGGSQQPQAQQRRVTPDRSQTSQDLFSYQALYSYIPQNDDELELRDGDIVDVMEKCDDGWFVGTSRRTKQFGTFPGNYVKPLYL [SORBS1]	-0.0532	0.424	-0.134	4.08
MSWLFGVNKGPKGEGAGPPPPLPPAQPGAEGGGDRGLGDRPAPKDKWSNFDPTGLERAAKAARELEHSRYAKEALNLAQMQEQTLQLEQQSKLKEYEAAVEQLKSEQIRAQAEERRKTLSEETRQHQARAQYQDKLARQRYEDQLKQQQLLNEENLRKQEESVQKQEAMRRATVEREMELRHKNEMLRVETEARARAKAERENADIIREQIRLKASEHRQTVLESIRTAGTLFGEGFRAFVTDRDKVTATVAGLTLLAVGVYSAKNATAVTGRFIEARLGKPSLVRETSRITVLEALRHPIQVSRRLLSRPQDVLEGVVLSPSLEARVRDIAIATRNTKKNRGLYRHILLYGPPGTGKTLFAKKLALHSGMDYAIMTGGDVAPMGREGVTAMHKLFDWANTSRRGLLLFMDEADAFLRKRATEEISKDLRATLNAFLYHMGQHSNKFMLVLASNLPEQFDCAINSRIDVMVHFDLPQQEERERLVRLHFDNCVLKPATEGKRRLKLAQFDYGRKCSEVARLTEGMSGREIAQLAVSWQATAYASKDGVLTEAMMDACVQDAVQQYRQKMRWLKAEGPGRGVEHPLSGVQGETLTSWSLATDPSYPCLAGPCTFRICSWMGTGLCPGPLSPRMSCGGGRPFCPPGHPLL [ATAD3B]	-0.105	-0.00813	0.595	0.439
MVRGARQPQQPRSRLAPRLTGTVEKPPRKRRSRTEFALKEIMSSGGAEDDIPQGERKTVTDFCYLLDKSKQLFNGLRDLPQYGQKQWQSYFGRTFDVYTKLWKFQQQHRQVLDNRYGLKRWQIGEIASKIGQLYYHYYLRTSETSYLNEAFSFYSAIRQRSYYSQVNKEDRPELVVKKLRYYARFIVVCLLLNKMDVVKDLVKELSDEIEDYTHRFNTEDQVEWNLVLQEVAAFIEADPVMVLNDDNTIVITSNRLAETGAPLLEQGMIVGQLSLADALIIGNCNNQVKFSELTVDMFRMLQALEREPMNLASQMNKPGMQESADKPTRRENPHKYLLYKPTFSQLYTFLAASFKELPANSVLLIYLSATGVFPTGRSDSEGPYDFGGVLTNSNRDIINGDAIHKRNQSHKEMHCLHPGDLYPFTRKPLFIIVDSSNSVAYKNFTNLFGQPLVCLLSPTAYPKALQDQSQRGSLFTLFLNNPLMAFLFVSGLSSMRRGLWEKCQEYLRKINRDIAQLLTHSRSIDQAFLQFFGDEFLRLLLTRFIFCSATMRMHKIFRETRNYPESYPQLPRDETVENPHLQKHILELASILDVRNVFFENTIDDY [SCAI]	-0.309	-0.117	0.148	-0.274
NOS1AP	-0.0474	-0.0377	0.688	0.322
PIKFYVE	-0.0952	-0.153	0.473	0.726
SNRPF	-1.06	-0.0169	-0.0433	-0.451
VPS13D	-0.404	-0.104	0.236	-0.0982
